In the supplement of paper PMC10126150:
± gives the standard deviation of the averaged measurements.

System: ATP
Assay: switch fluorescence ratio, 500 uM ATP over buffer (Cy3 cluster intensity, sum of 5 cycles each) (fold (ratio)); higher = stronger signal-on switching upon ATP binding; sequences stand for … in TCGTCGGCAGCGTCAGATGTGTATAAGAGACAGTTTTTTTTTTTTTTTTTTTTTTTTT…TC
Details: aptamer strand: ATP DNA aptamer (quencher-CACCTGGGGGAGTATTGCGGAGGAAGG + anchor), 100 nM annealed; ATP concentration: 500 uM
Summary of the method: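 Clusters carrying Cy3-labelled switching strands on a modified Illumina MiSeq flow-cell were annealed to 100 nM quencher-labelled ATP aptamer and imaged in selection buffer. They were imaged again after 15 min with 500 uM ATP at 22 °C, over five buffer/ATP cycles with NaOH stripping and re-annealing in between. For each cluster, the fluorescence ratio is the summed Cy3 intensity of the target cycles divided by that of the buffer cycles, averaged per switch-domain sequence. Clusters outside 100-1000 RFU were left out.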
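Further: ATP exposure 15 min at 22 °C before imaging.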

Row | Sequence | switch fluorescence ratio
1 | TGTGGTGCGA | 0.995 ± 0.029
2 | TGTGGTGGGG | 0.996 ± 0.042
3 | TGTGGTGGGT | 1.042 ± 0.0097
4 | TGTGTAAAGT | 1.82 ± 1.2
5 | TGTGTAATTG | 1.01 ± 0.032
6 | TGTGTATTGT | 0.985 ± 0.031
7 | TGTGTCAGCT | 0.9981 ± 0.0041
8 | TGTGTCATGT | 0.989 ± 0.013
9 | TGTGTCTGTT | 0.9933 ± 0.0025
10 | TGTGTCTTTT | 1.01 ± 0.047
11 | TGTGTGAGT | 0.964 ± 0.013
12 | TGTGTGAGTG | 0.981 ± 0.054
13 | TGTGTGCCGG | 0.9332 ± 0.0057
14 | TGTGTGTTTA | 1.01 ± 0.012
15 | TGTGTGTTTG | 0.989 ± 0.015
16 | TGTGTTATAC | 1.05 ± 0.043
17 | TGTGTTATGT | 1.03 ± 0.038
18 | TGTGTTATTT | 0.999 ± 0.024
19 | TGTGTTCACA | 0.98 ± 0.0058
20 | TGTGTTCACT | 1.01 ± 0.036
21 | TGTGTTCCGA | 0.9975 ± 0.0083
22 | TGTGTTTAGT | 1.01 ± 0.013
23 | TGTGTTTATA | 1.013 ± 0.0095
24 | TGTGTTTGAG | 0.972 ± 0.051
25 | TGTTAAACGG | 1.01 ± 0.039

Row | Sequence | switch fluorescence ratio
26 | TGTTAATGGG | 0.997 ± 0.016
27 | TGTTACTCCT | 1.09 ± 0.026
28 | TGTTAGGGTT | 1.01 ± 0.04
29 | TGTTAGTCTA | 0.9884 ± 0.0052
30 | TGTTATAAAT | 0.999 ± 0.032
31 | TGTTATACGT | 1.02 ± 0.019
32 | TGTTATGAGT | 0.99 ± 0.036
33 | TGTTATGGGT | 1.04 ± 0.039
34 | TGTTATGTTT | 0.99 ± 0.032
35 | TGTTATTGAA | 0.992 ± 0.046
36 | TGTTATTGGT | 1.01 ± 0.015
37 | TGTTATTTGT | 0.975 ± 0.048
38 | TGTTCAGACG | 1.03 ± 0.053
39 | TGTTCCGTAT | 0.993 ± 0.044
40 | TGTTCGACCG | 1.012 ± 0.01
41 | TGTTCGGGAT | 0.977 ± 0.01
42 | TGTTCTTAGT | 1 ± 0.048
43 | TGTTGAAAAG | 0.979 ± 0.01
44 | TGTTGAAAAT | 1.02 ± 0.048
45 | TGTTGAACGT | 1.004 ± 0.0086
46 | TGTTGAGTTG | 0.9749 ± 0.0031
47 | TGTTGATACT | 1.06 ± 0.12
48 | TGTTGCAGAG | 1.03 ± 0.049
49 | TGTTGCGAAA | 1 ± 0.025
50 | TGTTGCGCCG | 0.929 ± 0.081

Row | Sequence | switch fluorescence ratio
51 | TGTTGCGTGG | 0.992 ± 0.012
52 | TGTTGGGAGG | 0.969 ± 0.017
53 | TGTTGGGGAC | 1.023 ± 0.0065
54 | TGTTGGGTTT | 0.998 ± 0.031
55 | TGTTGGTAAT | 0.996 ± 0.012
56 | TGTTGGTATA | 1.01 ± 0.012
57 | TGTTGGTGGG | 0.989 ± 0.024
58 | TGTTGTGATT | 0.994 ± 0.023
59 | TGTTGTGCAC | 1.02 ± 0.023
60 | TGTTGTTTCG | 0.989 ± 0.025
61 | TGTTGTTTGT | 1.02 ± 0.026
62 | TGTTTAAAGG | 1.02 ± 0.051
63 | TGTTTAACAT | 0.981 ± 0.035
64 | TGTTTACTTT | 0.98 ± 0.014
65 | TGTTTAGCTT | 1.024 ± 0.0066
66 | TGTTTATTAG | 0.986 ± 0.01
67 | TGTTTATTCC | 1.11 ± 0.087
68 | TGTTTCAACT | 0.9843 ± 0.0045
69 | TGTTTCCATG | 0.988 ± 0.016
70 | TGTTTCCGTG | 0.9766 ± 0.0027
71 | TGTTTCTCTG | 1.01 ± 0.023
72 | TGTTTGAAAA | 0.953 ± 0.027
73 | TGTTTGAAGA | 1 ± 0.028
74 | TGTTTGCCAG | 1 ± 0.05
75 | TGTTTGGATG | 0.973 ± 0.029

Row | Sequence | switch fluorescence ratio
76 | TGTTTGGATT | 0.988 ± 0.013
77 | TGTTTGGCGG | 0.966 ± 0.02
78 | TGTTTGGCTT | 0.9619 ± 0.0079
79 | TGTTTGGTAA | 0.981 ± 0.024
80 | TGTTTGTAAA | 1.01 ± 0.029
81 | TGTTTGTAGG | 0.97 ± 0.043
82 | TGTTTGTCA | 0.989 ± 0.022
83 | TGTTTGTGAG | 1 ± 0.045
84 | TGTTTGTGCG | 0.9633 ± 0.0057
85 | TGTTTGTTT | 1.03 ± 0.025
86 | TGTTTTAAAA | 0.99 ± 0.027
87 | TGTTTTAGCT | 0.973 ± 0.021
88 | TGTTTTAGG | 0.998 ± 0.048
89 | TGTTTTATCA | 0.9742 ± 0.0037
90 | TGTTTTCGCA | 1 ± 0.021
91 | TGTTTTGAGA | 1 ± 0.023
92 | TGTTTTGATC | 0.977 ± 0.029
93 | TGTTTTGGCG | 0.959 ± 0.018
94 | TGTTTTGGTT | 0.991 ± 0.025
95 | TGTTTTGTGG | 1.02 ± 0.018
96 | TGTTTTTAGA | 1.01 ± 0.019
97 | TGTTTTTGGG | 0.989 ± 0.029
98 | TGTTTTTGGT | 0.978 ± 0.016
99 | TGTTTTTTAA | 0.99 ± 0.044
100 | TGTTTTTTGC | 0.995 ± 0.056
